Measurements reported in patent US20030148956A1 (PROCTER AND GAMBLE, published 2003).
Ends that are not written are not given here.

Assays:
[1] = biological target: corticotropin releasing factor 1 receptor; experiment: cell-based or functional assay
[2] = biological target: T1, corticotropin releasing factor 2 receptor; experiment: cell-based or functional assay
T1 sequence (Q13324 whole entry, species assumed, looked up): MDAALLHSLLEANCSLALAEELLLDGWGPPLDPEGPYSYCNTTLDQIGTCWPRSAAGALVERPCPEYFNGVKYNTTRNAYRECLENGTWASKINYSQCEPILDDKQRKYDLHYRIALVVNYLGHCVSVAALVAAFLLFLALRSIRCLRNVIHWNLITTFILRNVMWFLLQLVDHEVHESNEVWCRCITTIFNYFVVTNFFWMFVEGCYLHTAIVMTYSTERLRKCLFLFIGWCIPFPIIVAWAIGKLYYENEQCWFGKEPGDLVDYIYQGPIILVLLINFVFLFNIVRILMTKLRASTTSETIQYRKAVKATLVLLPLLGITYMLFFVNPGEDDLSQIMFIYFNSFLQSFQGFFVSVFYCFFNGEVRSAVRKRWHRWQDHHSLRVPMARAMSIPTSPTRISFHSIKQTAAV

Row | Binder | CRF1R EC50 [1] [nM] | CRF1R Emax % [1] [%] | CRF2R EC50 [2] [nM] | CRF2R Emax % [2] [%]
1 | ZGPPISIDLPFQLLRKVIEIEKQEKEKQQATTNARLLDRV (C-terminal amide) [SEQ ID NO 351] | 1000 | 85.7 | 12.9 | 97.4
2 | ZGPPISIDLPFQLLRKVIEIEKQEKEKQQAANNALLLATI (C-terminal amide) [SEQ ID NO 352] | 780 | 82.6 | 8.26 | 83.7
3 | ZGPPISIDLPLYLLRKMIEIEKQEKEKQQATTNARILARV (C-terminal amide) [SEQ ID NO 353] | 230 | 92.2 | 4.75 | 89.9
4 | Ac-IVLSLDVPIGLLQILLEQARARAAREQATTNARILARV-NH2 [SEQ ID NO 354] | 1000 | 13.4 | 6.48 | 100
5 | ZGPPISIDLSLELLRKMIEIEKQEKEKQQAANNRLLLDTI (C-terminal amide) [SEQ ID NO 355] | 18 | 100 | 6.03 | 95
6 | IVLSLDVPIGLLQILLEQARARAAREQATTNARILARVM-NH2 [SEQ ID NO 356] | 1000 | – | 83 | –
7 | ZGPPISIDLPFQLLRKLIEIEKQEKEKQQAANNALLLATI (C-terminal amide) [SEQ ID NO 357] | 331 | 100 | 6.44 | 100
8 | ZGPPISIDLPFQLLRILIEIEKQEKEKQQAANNALLLAT (C-terminal amide) [SEQ ID NO 358] | 99 | 100 | 5.56 | 100
9 | ZGPPISIDLPFQLLREVIEIEKQEKEKQQAANNALLLATI (C-terminal amide) [SEQ ID NO 359] | 230 | 100 | 23.1 | 100
10 | ZGPPISIDLPFQLLRLLIEIEKQEKEKQQAANNALLLATI (C-terminal amide) [SEQ ID NO 360] | 157 | 100 | 6.12 | 93
11 | ZGPPISIDLPFQLLRVLIEIEKQEKEKQQAANNALLLATI (C-terminal amide) [SEQ ID NO 361] | 149 | 100 | 6.37 | 99
12 | ZGPPISIDLPFQLLRKIIEIEKQEKEKQQAANNALLLATI (C-terminal amide) [SEQ ID NO 362] | 386 | 100 | 4.39 | 100
13 | ZGPPISIDLPFQLLRKAIEIEKQEKEKQQATTNARLLDRV (C-terminal amide) [SEQ ID NO 363] | 1000 | 20 | 25.1 | 100
14 | ZGPPISIDLPFQLLRKAIEIEKQEKEKQQAANNALLLATI (C-terminal amide) [SEQ ID NO 364] | 1000 | 27 | 13.2 | 100
15 | ZGPPISIDLPFQLLRKAIEIEKQEKEKQQAANNALLLDTI (C-terminal amide) [SEQ ID NO 365] | 1000 | 21 | 23.4 | 94
16 | IVLSLDVPIGLLQILLEKAAAEAEAAAKAAQEQILAHV-NH2 [SEQ ID NO 366] | 1000 | 9 | 100 | 46
17 | IVLSLDVPIGLLQILLEQARHAAAHAAAHAQAHILAHV-NH2 [SEQ ID NO 367] | 1000 | 6 | 100 | 18
18 | IVLSLDVPIGLLQILLEQARARAAREQATTNARILARVM-NH2 [SEQ ID NO 368] | 1000 | – | 50.4 | –
19 | IVLSLDVPIGLLQILLEQARHAHAHAHAHAQAHILAHV-NH2 [SEQ ID NO 369] | 1000 | 4 | 100 | 18
20 | IVLSLDVSIGLLQILLEQARARAAREQATTNARILARV-NH2 [SEQ ID NO 370] | 1000 | 33 | 51 | 75
21 | IVLSLDVPIHLLQILLEQARARAAREQATTNARILARV-NH2 [SEQ ID NO 371] | 1000 | 22 | 6.62 | 97

Next, values leading:

Row | CRF1R EC50 [1] [nM] | CRF1R Emax % [1] [%] | CRF2R EC50 [2] [nM] | CRF2R Emax % [2] [%] | Binder
22 | 1000 | 13 | 14.2 | 100 | ZGPPISIDVPYWLLRKVIEIEKQEKEKQQAANNARLLDTI (C-terminal amide) [SEQ ID NO 372]
23 | 1000 | 9 | 11.5 | 100 | ZGPPISIDVPYWLLRKVIEIEKQEKEKQQAANNARLLARI (C-terminal amide) [SEQ ID NO 373]
24 | 1000 | 11 | 15.8 | 91 | ZGPPISIDVPYQLLRKVIEIEKQEKEKQQAANNARLLDTI (C-terminal amide) [SEQ ID NO 374]
25 | 1000 | 22 | 11.5 | 100 | ZGPPISIDVPYQLLRKVIEIEKQEKEKQQAANNARLLARI (C-terminal amide) [SEQ ID NO 375]
26 | 1000 | 8 | 52.5 | 100 | ZGPPISIDVPYHLLRKVIEIEKQEKEKQQAANNARLLDTI (C-terminal amide) [SEQ ID NO 376]
27 | 1000 | 25 | 19.2 | 83 | ZGPPISIDVPYHLLRKVIEIEKQEKEKQQAANNARLLARI (C-terminal amide) [SEQ ID NO 377]
28 | 1000 | 36 | 14.9 | 100 | ZGPPISIDVPYYLLRKVIEIEKQEKEKQQAANNARLLARI (C-terminal amide) [SEQ ID NO 378]
29 | 1000 | 8 | 70.5 | 94 | ZGPPISIDVPIYLLRKVIEIEKQEKEKQQAANNARLLARI (C-terminal amide) [SEQ ID NO 379]
30 | 1000 | 16 | 19 | 100 | ZGPPISIDVPLQLLRKVIEIEKQEKEKQQAANNARLLDTI (C-terminal amide) [SEQ ID NO 380]
31 | 1000 | 27 | 12.7 | 99 | ZGPPISIDVPLQLLRKVIEIEKQEKEKQQAANNARLLARI (C-terminal amide) [SEQ ID NO 381]
32 | 1000 | 8 | 39.5 | 100 | ZGPPISIDVPFQLLRKVIEIEKQEKEKQQAANNARLLDTI (C-terminal amide) [SEQ ID NO 382]
33 | 1000 | 55 | 9.31 | 96 | ZGPPISIDVPFQLLRKVIEIEKQEKEKQQAANNARLLARI (C-terminal amide) [SEQ ID NO 383]
34 | 1000 | 70.3 | 7.1 | 97.3 | DNPSLSIDVPLLLLRTLLELEKTQSQRERAEQNARIFARV-NH2 [SEQ ID NO 384]
35 | 1000 | 46 | 10.2 | 100 | DNPSLSIDVPLFLLRTLLELEKTQSQRERAEQNARIFARV-NH2 [SEQ ID NO 385]
36 | 1000 | 78.2 | 8.7 | 96 | DNPSLSIDVPFFLLRTLLELEKTQSQRERAEQNARIFARV-NH2 [SEQ ID NO 386]
37 | 1000 | 50.1 | 17.9 | 100 | DNPSLSIDVPLYLLRTLLELEKTQSQRERAEQNARIFARV-NH2 [SEQ ID NO 387]
